From US20060141460A1, “Assays for fprl-1 ligands” (AstraZeneca A B, priority 2002, published 2006)
Where “and” joins values, the source holds several entries; their conditions need not be identical. Equal values may be shown once. Read-outs that look alike come from different tables or passages of the source. Each block holds one molecule with its values, some of them ahead of it. Where no end group is shown, it is not given here.

Tests used:
[1] = target: human formyl peptide receptor-like-1 (FPRL-1) receptor (human) (UniProt P25090); assay: cell-based or functional assay
[2] = test system: PMNs; assay: [Ca2+]i mobilization in PMNs (FLIPR); assay type: cell-based, human; details: n as in cell
Text: Neutrophils play a pivotal role in the innate immune response to infection. Since these cells express FPRL-1, we evaluated the effect of CKβ8-1 (aa46-137) on PMNs calcium mobilization using the FLIPR system.

[3] = target: T1, FPRL-1 (Homo sapiens, UniProt P25090); assay type: cell-based
T1 sequence (P25090 1-351): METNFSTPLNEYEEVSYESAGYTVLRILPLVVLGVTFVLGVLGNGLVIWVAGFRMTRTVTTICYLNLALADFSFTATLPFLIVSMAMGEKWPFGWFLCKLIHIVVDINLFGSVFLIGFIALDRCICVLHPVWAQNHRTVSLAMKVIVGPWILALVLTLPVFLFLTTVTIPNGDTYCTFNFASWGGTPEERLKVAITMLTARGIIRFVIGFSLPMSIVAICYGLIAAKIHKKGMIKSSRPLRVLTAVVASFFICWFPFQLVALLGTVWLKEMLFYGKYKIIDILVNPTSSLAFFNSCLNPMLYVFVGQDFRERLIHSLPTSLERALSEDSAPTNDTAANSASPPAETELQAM

[4] = test system: PMNs; assay: PMNs chemotaxis; assay type: cell-based, human
Method: The physiological relevance of CKβ8-1 (aa46-137) as a ligand for FPRL-1 was assessed by PMNs chemotaxis experiments.

[5] = target: T1, FPRL-1; assay type: cell-based; remark: listed apart in the source
Method: A stable receptor pool of FPRL-1 was developed by applying an antibiotic selection (G418, 1 mg/ml) and the cells were maintained in this selection medium.
A functional assay was performed with FLIPR (Fluorescent Imaging Plate Reader, Molecular Devices, Sunnyvale, Calif.) using the fluorescent calcium indicator Fluo-3 (Molecular Probes, Inc., Eugene, Oreg.) on a 96-well platform. […] On the day of the experiment, the FPRL-1-transfected cells were loaded with fluorescent solution (Dulbecco's modified medium containing 4 μM Fluo-3 and 20% pluronic acid). The cells were incubated at 37° C. for one hour in a humidified chamber. Following the incubation step, cells were washed five times in Hanks' with 20 mM Hepes and 0.1% BSA (pH 7.4). The cells were analyzed using the FLIPR system to measure the mobilization of intracellular calcium in response to different compounds.
Cell lines transiently expressing human FPRL-1 were stimulated with compounds, and calcium responses were compared to parental cells.

[6] = target: human formyl peptide receptor-like-1 (FPRL-1) receptor (human) (UniProt P25090); assay: displacement of [125I]-WKYMVm from membranes of CHO cells stably expressing FPRL-1 (n = 3)
[7] = target: T1, FPRL-1; assay: [125I]-W-peptide (WKYMVm) displacement on membranes from CHO cells stably expressing FPRL-1; assay type: binding
[8] = target: T1, FPRL-1; assay: Inhibition of forskolin-stimulated cAMP accumulation (adenylyl cyclase) in CHO cells expressing FPRL-1; assay type: cell-based; details: n as in cell
[9] = target: human formyl peptide receptor-like-1 (FPRL-1) receptor (human) (UniProt P25090); assay: cell-based or functional assay; remark: listed apart in the source
[10] = calcium mobilization, cells co-expressing Gα16 and FPRL-1
[11] = CHO cells co-expressing Gα16 and FPRL-1, mean±s.e. mean

Molecule: MMK-1 (peptide)
- concentration giving the maximum percentage of cell migration, PMN chemotaxis [1]: 12 µM
- pEC50, [Ca2+]i mobilization in PMNs (-log of the EC50) [1]: 7.17

Molecule: Human Prion protein (hPrP) (from UniProt P04156 106-126)
- Intracellular Ca2+ mobilization pEC50 (n = 3), CHO cells (-log of the EC50) [1]: < 6

Molecule: SHAAG peptide
- Intracellular Ca2+ mobilization pEC50 (n = 3), CHO cells (-log of the EC50) [1]: 6.74
- fold higher potency than CKβ8-1 (aa22-137), calcium mobilization [1]: 120 fold
- fold lower potency than CKβ8-1 (aa46-137), calcium mobilization [1]: 60 to 200 fold

Molecule: CKβ8-1 (aa22-137) (from UniProt P55773 22-137) (ligand)
- Intracellular Ca2+ mobilization pEC50 (n = 3), CHO cells (-log of the EC50) [1]: < 5.7
- fold lower potency at FPRL-1 than at CCR1, calcium mobilization [1]: 200 to 300 fold

Molecule: CSCC[C@H](NC(=O)[C@@H](NC(=O)[C@H](CCSC)NC(=O)[C@H](Cc1ccc(O)cc1)NC(=O)[C@H](CCCCN)NC(=O)[C@@H](N)Cc1c[nH]c2ccccc12)C(C)C)C(N)=O [W-peptide]
- calcium response ([3]; CHO cells transiently expressing FPRL-1, absence of Gα16): consistent calcium response
- effect of pertussis toxin (PTX) pre-treatment on ligand-induced Ca2+ response ([3]; CHO-K1 transiently expressing FPRL-1, PTX pre-treatment): completely abolished
- concentration at which the maximum percentage of cell migration was reached [4]: 100 nM

Molecule: MIP-1α: ligand tested in PMNs
- pEC50 [2]: inactive (n = 4)

Molecule: LWRRKIGPQMTLSHAAG [SHAAG peptide]
- EC50 ([5]; Intracellular Ca2+ mobilization pEC50 (n = 3), CHO cells co-expressing Gα16 and FPRL-1, mean±s.e. mean): 182 nM
- times less potent at FPRL-1 as compared to CKβ8-1 (aa46-137) [5, 10]: 60 to 200 times
- times more potent than the long form CKβ8-1(aa22-137) [5, 10]: ~120 times

Molecule: recombinant human CKβ8-1 (aa46-137) (from UniProt P55773 46-137) (ligand)
- Adenylyl cylase pIC50 (inhibition of forskolin-stimulated cAMP accumulation), CHO cells (-log of the IC50) [1]: 9.02
- EC50, intracellular calcium mobilization (FLIPR), CHO cells transiently expressing hFPRL-1 in Gα16 background, n = 1 [1]: 0.69 nM
- EC50, intracellular calcium mobilization (FLIPR), CHO cells transiently expressing hFPRL-1 in Gα16 background, n = 2 [1]: 0.14 nM
- EC50, intracellular calcium mobilization (FLIPR), CHO cells transiently expressing hFPRL-1 in Gαqi5 background, n = 1 [1]: 2.9 nM
- EC50, intracellular calcium mobilization (FLIPR), CHO cells transiently expressing hFPRL-1 in Gαqi5 background, n = 2 [1]: 2.5 nM
- Emax, intracellular calcium mobilization (FLIPR), CHO cells transiently expressing hFPRL-1 in Gα16 background, n = 1 [1]: 4120 RFU
- Emax, intracellular calcium mobilization (FLIPR), CHO cells transiently expressing hFPRL-1 in Gα16 background, n = 2 [1]: 6330 RFU
- Emax, intracellular calcium mobilization (FLIPR), CHO cells transiently expressing hFPRL-1 in Gαqi5 background, n = 1 [1]: 4600 RFU
- Emax, intracellular calcium mobilization (FLIPR), CHO cells transiently expressing hFPRL-1 in Gαqi5 background, n = 2 [1]: 5950 RFU
- Intracellular Ca2+ mobilization pEC50 (n = 3), CHO cells (-log of the EC50) [1]: 9.13
- concentration giving the maximum percentage of cell migration, PMN chemotaxis [1]: 1 µM
- pEC50, [Ca2+]i mobilization in PMNs (-log of the EC50) [1]: 7.42
- pIC50 (-log of the IC50) [6]: 7.97

Molecule: CCCCC[C@H](O)/C=C/C=C\C=C\C=C\[C@@H](O)[C@@H](O)CCCC(=O)O [Lipoxin A4 (LXA4), Lipoxin A4]
- Intracellular Ca2+ mobilization pEC50 (n = 3) [5, 11]: <6.0
- pEC50 [2]: inactive (n = 4)
- [125I]-W-peptide (WKYMVm) Displacement pIC50 (n = 3) [7]: inactive
- Adenylyl cylase pIC50 [8]: <5.7 (n = 2)

Continued, values first:

- pEC50 [2]: 8.76 ± 0.24 (n = 3)
Molecule: IL-8: known to activate CXCR1 and CXCR2 receptors

- Intracellular Ca2+ mobilization pEC50 (n = 3), CHO cells (-log of the EC50) [1]: < 5
Molecule: CKβ8 (aa46-120) (from UniProt P55773 46-120) (ligand)

- Intracellular Ca2+ mobilization pEC50 (n = 3), CHO cells (-log of the EC50) [1]: < 5
Molecule: CKβ8 (aa22-120) (from UniProt P55773 22-120) (ligand)

- Intracellular Ca2+ mobilization pEC50 (n = 3) [5, 11]: 6.88 ± 0.07
- pEC50 [2]: <5.7 (n = 3)
- Adenylyl cylase pIC50 (inhibition of forskolin-stimulated cAMP accumulation), CHO cells (-log of the IC50) [9]: 6.38 and 6.48
- Intracellular Ca2+ mobilization pEC50 (n = 3), CHO cells (-log of the EC50) [9]: 6.88
- pEC50, [Ca2+]i mobilization in PMNs (-log of the EC50) [9]: < 5.7
- [125I]-W-peptide (WKYMVm) Displacement pIC50 (n = 3) [7]: <5.52
- [125I]-W-peptide (WKYMVm) Displacement pIC50 (n = 3) ([7]; listed as SAA): < 5.52
- Adenylyl cylase pIC50 [8]: 6.38 and 6.48
B1: Serum Amyloid A protein (SAA) (ligand, UniProt P0DJI8 19-122, looked up, species assumed)
Serum amyloid A-1 protein: RSFFSFLGEAFDGARDMWRAYSDMREANYIGSDKYFHARGNYDAAKRGPGGAWAAEVITDARENIQRFFGHGAEDSLADQAANEWGRSGKDPNHFRPAGLPEKY
